Data taken from publication PMC7956749, “Establishment of Novel Protein Interaction Assays between Sin3 and REST Using Surface Plasmon Resonance and Time-Resolved Fluorescence Energy Transfer” (International Journal of Molecular Sciences, 2021).
“Also recorded” adds a separate entry of the source. Where no end group is shown, it is not given here.

Columns and labels:
[1] = target: T1, PAH1-FLAG (paired amphipathic helix 1 domain of Sin3B with a FLAG tag) (UniProt Q62141 31-107); assay: SPR; well-used sensor chip (about 100 regenerations)
T1 chain: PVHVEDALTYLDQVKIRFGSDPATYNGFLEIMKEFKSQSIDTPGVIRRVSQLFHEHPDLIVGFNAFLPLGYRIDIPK

[2] = target: T2, GST-tagged PAH1 (paired amphipathic helix 1 domain of Sin3B) (UniProt Q62141 31-107); assay: SPR
T2 chain: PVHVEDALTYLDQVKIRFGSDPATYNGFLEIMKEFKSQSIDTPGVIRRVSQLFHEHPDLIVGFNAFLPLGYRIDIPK

[3] = target: T1, PAH1-FLAG (paired amphipathic helix 1 …); assay: SPR; brand-new sensor chip
biotinylated REST [4] = assay: SPR kinetics of PAH1 peptides on captured biotinylated REST (Biacore T200, SA chip); format: binding; settings: for Ka (association rate) / Kd (dissociation rate): mean ± SEM, n = 3; for binding to biotinylated REST: SPR sensorgram, SA chip, 0.625 to 10 µM analyte
Excerpt: In order to validate a binding surface between Sin3B and REST, we utilized the structural information of PDB (2CZY) and designed longer peptides of binding surfaces with a tag and a protease recognition site as shown in Figure 1a. We asked the RIKEN Systems and Structural Biology Center (Yokohama, Japan) to generate recombinant peptides using E. coli. Finally, we obtained biotinylated REST, GST-PAH1 and PAH1-FLAG. In order to validate whether biotinylated REST binds two PAH1 peptides, we designed an SPR assay using a streptavidin (SA) sensor chip as shown in Figure 1b. Biotinylated REST should be bound as a ligand followed by the injection of PAH1 peptides as an analyte.
We chose the amino acid sequences of PAH1 and REST from information based on the crystal structure of a PAH1/REST complex (PDB: 2CZY). We then asked the scientists with the RIKEN institute to produce recombinant PAH1 and REST peptides. They generated recombinant peptides such as GST-PAH1, PAH1-FLAG and biotinylated REST using E. coli. We used these peptides in this study.
Values are expressed as the mean ± standard error of the mean (SEM) from indicated replicate samples in each experimental group and the experiments were replicated to ensure consistency. The statistical significance was determined using the Student’s t-test. Values marked as “*” were considered to be statistically significant if their p values were <0.00005. Signal-to-background ratio (S/B), signal-to-noise ratio (S/N) and Z’-factor were calculated by the formula described in our previous report. Additionally, the general criterion sufficient to perform HTS was validated in our previous report. In the SPR experiments, a statistical trend was considered to be statistically significant if its p-value was 1 > p > 0.05.

biotinylated REST [5] = assay: TR-FRET PAH1-REST interaction (anti-GST/anti-FLAG-Eu3+ cryptate donor, SA-XL665 acceptor); format: binding; settings: for TR-FRET signal: 665 nm normalized to 620 nm, PAH1 peptide and biotinylated REST 1 to 10,000 nM, n = 4; for dynamic range: TR-FRET 665/620 nm, 384-well, 20 µL, 50 mM Tris-HCl pH 7.6, with biotinylated REST; for S/B / S/N: n=4
Excerpt: Finally, in order to establish a high-throughput and high-dynamic-range assay mimicking the binding surface between PAH1 and REST, we tried to apply the TR-FRET method for monitoring the interaction as shown in Figure 3a. We chose Europium cryptate (Eu^3+)-conjugated antibodies against GST or FLAG as a donor and SA-conjugated XL665 (a phycobiliprotein pigment derived from red algae) as an acceptor, for TR-FRET. If GST-PAH1 or PAH1-FLAG binds biotinylated REST and then transfers Eu^3+’s energy to XL665, it results in a change of the wavelength from 620 nm (a […] fluorescence derived from Eu^3+ alone) to 665 nm (a long-lived fluorescence converted by FRET) (Figure 3a). […] We prepared a serial dilution of GST-PAH1 or PAH1-FLAG and biotinylated REST ranging from 1 to 10,000 nM (Figure 3b) and then determined the 665 nm fluorescence normalized to 620 nm. […] We also checked whether GST-PAH1-anti-GST-Eu^3+ or FLAG-PAH1-anti-FLAG-Eu^3+ complexes caused any FRET with XL665 (Supplementary Figure S1e), and could not observe any change in wells with these alone. We assigned thresholds for high-throughput and high-standard assay as signal-to-background ratio (S/B) and Z’ factors of more than 5 and 0.8, respectively. We narrowed down optimal conditions to GST-PAH1 at 10, 100, 1000 or 10,000 nM in the presence of biotinylated REST at 1000 or 10,000 nM and that PAH1-FLAG and biotinylated REST at 10,000 nM. The S/B, signal-to-noise ratio (S/N), Z’ factor and coefficient of variation (CV) are shown in the Supplementary Table S1. We also assigned stringent statistical significance and then identified similar results by the S/B and Z’ factor (Figure 3b). To exclude the possibility that Eu^3+ antibodies directly bound XL665 causing FRET, we also determined the fluorescence level in wells including anti-GST-Eu^3+ or anti-FLAG-Eu^3+ and XL665. […] The results were 772 ± 9.1 and 436 ± 9.1 665/620 nm, respectively (n = 6). Although we observed very good dynamic range data at 1 h after preparing reaction mixtures, we obtained similar high-dynamic range data even at 18 h after that (data not shown). From 10 to 1000 nM in the concentration of biotinylated REST, 1000 or 10,000 nM GST-PAH1 induced maximal signals (Figure 3b, left, light blue and orange). The dynamic range of the assay was 31-fold, whereas only 10,000 nM PAH1-FLAG was required for the same amount of biotinylated REST to provide a maximal response and the dynamic range was 7-fold (Figure 3b, right, orange). We ultimately succeeded in establishing a high-standard assay, especially using GST-PAH1 and biotinylated REST.
TR-FRET reagents were prepared by diluting the anti-GST Eu3+ cryptate or anti-FLAG Eu3+ cryptate and SA-XL665 in 50 mM Tris-HCl (pH 7.6) buffer containing 15 mM NaCl, 140 mM KCl, 0.5 mM MgCl2, 0.1% BSA and 0.8 M KF with and without biotinylated REST and each PAH1 peptide. The reaction mix was 20 µL in 384-well format according to the manufacturer’s instructions. The fluoride ion avoids interference with fluorescence properties by protecting free coordination sites between conjugate “cage” and europium ions. One hour or more after preparation, we measured the intensities at 665 and 620 nm wavelength using PHERAstar FS (BMG biotech, Offenburg, Germany).
Values are expressed as the mean ± standard error of the mean (SEM) from indicated replicate samples in each experimental group and the experiments were replicated to ensure consistency. The statistical significance was determined using the Student’s t-test. Values marked as “*” were considered to be statistically significant if their p values were <0.00005. Signal-to-background ratio (S/B), signal-to-noise ratio (S/N) and Z’-factor were calculated by the formula described in our previous report. Additionally, the general criterion sufficient to perform HTS was validated in our previous report. […]

biotinylated REST [6] = assay: SPR competitive binding, GST-PAH1 plus PAH1-FLAG on captured biotinylated REST
Method: In order to determine whether another PAH1 peptide, PAH1-FLAG, competitively binds biotinylated REST in the presence of GST-PAH1, we injected 10 µM GST-PAH1, 10 µM PAH1-FLAG or 5 µM GST-PAH1 and 5 µM PAH1-FLAG into the flow cell capturing biotinylated REST, all of which could change the sensorgram, even though their rates of association/dissociation were different (Figure 2c). […] As a result, the equal molarity of both PAH1 peptides changed the sensorgram-like intermediate form (Figure 2c). The association rate was faster than GST-PAH1, while the dissociation rate was slower than PAH1-FLAG.

[7] = SPR Biacore T200, SA chip with biotinylated REST, brand-new sensor chip, analyte 0.625 to 10 µM, 30 µL/min, association 60 s, dissociation 2 min
[8] = TR-FRET, PAH1 10 nM, REST 1000 nM
[9] = TR-FRET, PAH1 10 nM, REST 10,000 nM
[10] = TR-FRET, PAH1 100 nM, REST 1000 nM
[11] = TR-FRET, PAH1 100 nM, REST 10,000 nM
[12] = TR-FRET, PAH1 1000 nM, REST 1000 nM
[13] = TR-FRET, PAH1 1000 nM, REST 10,000 nM
[14] = TR-FRET, PAH1 10,000 nM, REST 1000 nM
[15] = TR-FRET, PAH1 10,000 nM, REST 10,000 nM
[16] = SPR, well-used sensor chip (after around 100 regenerations) with biotinylated REST

APQLIMLANVALTGE (also: biotin, site not given here) [biotinylated REST peptide (RE-1 silencing transcription factor, binding surface for Sin3B PAH1)] showed a Kd [1] of 1690 nM, a Kd [2] of 0.468 nM and a Kd [3] of 2030 nM.

B1: GST-PAH1: recombinant glutathione S-transferase (GST)-tagged PAH1 peptide of Sin3B, produced in E. coli (protein)
chain: PVHVEDALTYLDQVKIRFGSDPATYNGFLEIMKEFKSQSIDTPGVIRRVSQLFHEHPDLIVGFNAFLPLGYRIDIPK
modifications: left off: GST, end not stated, kept | histidine-tag-like sequence, end not stated, state not stated
notes: recombinant glutathione S-transferase (GST)-tagged PAH1 peptide of Sin3B, produced in E. coli
For B1, the Ka (association rate) (biotinylated REST [4]; [7]) was 2.38e+06 ± 6.7e+11 M⁻¹ s⁻¹, the “Kd (dissociation rate)” value (biotinylated REST [4]; [7]) was 1.35 ± 0.82 × 10^−3 1/s and the “association and dissociation with biotinylated REST” value (biotinylated REST [4]; SPR sensorgram after ligand capturing, GST-PAH1 10 µM) was “robust association and subsequent dissociation”. The “binding to biotinylated REST” value (biotinylated REST [4]) was “bound biotinylated REST in a concentration-dependent manner”, the “affinity/association compared with PAH1-FLAG” value (biotinylated REST [4]; SPR, statistical comparison GST-PAH1 vs PAH1-FLAG, Student's t-test) was “not significant but had a slower trend than PAH1-FLAG, resulting in a significantly increased affinity to REST; also recorded: significantly greater than that of PAH1-FLAG” and the “TR-FRET signal” value (biotinylated REST [5]) was “substantial signals; also recorded: remarkably higher dynamic range and accuracy”. It also gave a dynamic range (biotinylated REST [5]) of 31 fold, a S/B (biotinylated REST [5]; [8]) of 26.6 and a S/N (biotinylated REST [5]; [8]) of 469.9. The S/B (biotinylated REST [5]; [9]) was 24.2, the S/N (biotinylated REST [5]; [9]) was 1,114.3 and the S/B (biotinylated REST [5]; [10]) was 27.0. The S/N (biotinylated REST [5]; [10]) was 478.7, the S/B (biotinylated REST [5]; [11]) was 26.7 and the S/N (biotinylated REST [5]; [11]) was 1230.7. It also gave a S/B (biotinylated REST [5]; [12]) of 29.2, a S/N (biotinylated REST [5]; [12]) of 517.8 and a S/B (biotinylated REST [5]; [13]) of 31.1. For the same molecule, the S/N (biotinylated REST [5]; [13]) was 1441.0, the S/B (biotinylated REST [5]; [14]) was 7.7 and the S/N (biotinylated REST [5]; [14]) was 123.9. For the same molecule, the S/B (biotinylated REST [5]; [15]) was 11.7 and the S/N (biotinylated REST [5]; [15]) was 515.1.

B2: PAH1-FLAG: recombinant FLAG-tagged PAH1 peptide of Sin3B, produced in E. coli (protein)
chain: PVHVEDALTYLDQVKIRFGSDPATYNGFLEIMKEFKSQSIDTPGVIRRVSQLFHEHPDLIVGFNAFLPLGYRIDIPK
modifications: left off: FLAG, end not stated, kept | histidine-tag-like sequence, end not stated, state not stated
notes: recombinant FLAG-tagged PAH1 peptide of Sin3B, produced in E. coli
For B2, the “Ka (association rate)” value (biotinylated REST [4]; [7]) was 1.93 ± 0.17 × 10^3 Ms, the “Kd (dissociation rate)” value (biotinylated REST [4]; [7]) was 3.83 ± 0.39 × 10^−3 1/s and the “binding to biotinylated REST” value (biotinylated REST [4]) was “bound biotinylated REST in a concentration-dependent manner”. For the same molecule, the “Ka (association rate)” value (biotinylated REST [4]; [16]) was 2.31 ± 0.78 × 10^3 Ms, the “Kd (dissociation rate)” value (biotinylated REST [4]; [16]) was 3.59 ± 0.13 × 10^−3 1/s and the “affinity on well-used vs brand new chip” value (biotinylated REST [4]; SPR, PAH1-FLAG, well-used vs brand-new chip with REST) was “not significantly different, but had a trend of lower affinity when compared to the brand new one”. For the same molecule, the “TR-FRET signal” value (biotinylated REST [5]) was “fewer signals only at high reagent concentrations”, the dynamic range (biotinylated REST [5]) was 7 fold and the S/N (biotinylated REST [5]; [15]) was 165.3. For the same molecule, the “concentration inducing maximal signal” value (biotinylated REST [5]; TR-FRET, biotinylated REST 10 to 1000 nM) was 10,000 nM, the “competitive binding to biotinylated REST” value (biotinylated REST [6]; 10 µM GST-PAH1, 10 µM PAH1-FLAG or 5 µM of each) was “shares the same binding surface as GST-PAH1” and the “rates of association and dissociation vs GST-PAH1” value (biotinylated REST [6]; 10 µM each) was “far more quickly than in GST-PAH1”.
